Results on one molecule are retold here after patent US20240287172A1 (SCIRHOM, published 2024).

The target in the experiment is T1, hiR2-FL-L539A-T7 (human, UniProt Q6PJF5 1-856).
T1 construct: on MEF-DKO cells
T1 sequence: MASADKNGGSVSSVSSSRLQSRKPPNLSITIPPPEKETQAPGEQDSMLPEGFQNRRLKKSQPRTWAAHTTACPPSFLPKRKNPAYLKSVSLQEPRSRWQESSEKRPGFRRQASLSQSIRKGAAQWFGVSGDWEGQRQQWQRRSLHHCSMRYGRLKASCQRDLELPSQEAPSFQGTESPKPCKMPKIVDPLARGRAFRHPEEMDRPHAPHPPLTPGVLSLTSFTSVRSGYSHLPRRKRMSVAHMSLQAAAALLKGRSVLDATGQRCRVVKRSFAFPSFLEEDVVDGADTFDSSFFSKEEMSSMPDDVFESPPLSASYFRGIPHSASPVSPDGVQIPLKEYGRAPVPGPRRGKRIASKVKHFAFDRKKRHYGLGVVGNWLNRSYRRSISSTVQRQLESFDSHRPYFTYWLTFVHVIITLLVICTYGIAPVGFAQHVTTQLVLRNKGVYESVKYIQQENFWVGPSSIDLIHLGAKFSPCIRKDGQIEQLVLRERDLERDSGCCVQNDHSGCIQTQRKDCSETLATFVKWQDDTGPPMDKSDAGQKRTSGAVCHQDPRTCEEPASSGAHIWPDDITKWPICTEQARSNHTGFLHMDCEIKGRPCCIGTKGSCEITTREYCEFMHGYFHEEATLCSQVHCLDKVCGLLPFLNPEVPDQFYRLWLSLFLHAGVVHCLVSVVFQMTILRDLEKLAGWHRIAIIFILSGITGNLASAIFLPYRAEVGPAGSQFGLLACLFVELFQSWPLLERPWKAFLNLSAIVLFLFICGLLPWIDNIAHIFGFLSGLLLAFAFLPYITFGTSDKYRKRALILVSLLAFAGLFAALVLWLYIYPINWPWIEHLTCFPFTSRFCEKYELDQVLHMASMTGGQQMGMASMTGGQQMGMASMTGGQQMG
The experiment can be described thus: FACS on MEF-DKO-hiR2-FL-L539A-T7 cells.

B1: antibody 3 (antibody, V domains shown)
VH: QVTLKESGPGILQPSQTLSLTCSFSGFSLTTFAMGIGWVRQPSGKGLEWLAHIWWDGEKYNNPVLKSRLTISKDTSKNQVFLRIANVDTPDTATYYCARISSIYYIIDNWGQGTSVTVSS
VL: DIVLTQSPATLSVTPGHSVSLSCRASQSISNNLHWYQKKSHESPRLLIKYVSQSISGIPSRFSGSGSGTDFTLSINSVETEDFGMYFCQQSYNWPLTFGAGTKLELK
notes: mouse IgG, kappa light chain; also called clone #3; purified antibody 3
Consider B1, for which the binding result is “no binding (tested: 3 µg/ml)”.
